The source of these data is patent publication US20230127123A1 (Dana-Farber, published 2023).

B1: 1D2 (antibody, V domains shown)
VH: QVQLVQSGAEVKKPGSSVKVSCKASGGTFSSYAISWVRQAPGQGLEWMGGIIPIFGTANYAQKFQGRVTITADESTSTAYMELSSLRSEDTAVYYCARDGSGYDSAGMDDWGQGTLVTVSS
VL: QPGLTQPPSASGTPGQTVTISCSGSRSNIGSNYVYWYQQFPGTAPKLLIFSNNQRPSGVPDRFSGSKSGTSASLAISGLRSEDEADYYCAVWDDSLSGVVFGGGTKLTVL
notes: anti-PD-L1 clone; also called Ab 1D2
B2: 1B4 (antibody, V domains shown)
VH: QVQLVQSGGGLVKPGGSLRLSCVGSDFAFSSAWMNWVRQAPGKGLEWVGRIKSKTDGETTDYAAPVKDRFIISRDDSKNTLYLEMNSLKTEDTGVYYCTTGGLGLVYPYYNYIDVWGEGTTVTVSS
VL: LPVLTQPPSASGTPGQRVTISCSGSSSNIGSNYVYWYQQLPGTAPKLLIYRNNQRPSGVPDRFSGSKSGTSASLAISGLRSEDEADYYCAAWDDSLNGLVFGTGTRVTVL
notes: anti-PD-L1 clone; also called Ab 1B4
B3: 1A6 (antibody, V domains shown)
VH: QVQLVQSGGEVKKPGASVKVSCKASGYTLSSHGITWVRQAPGQGLEWMGWISAHNGHASNAQKVEDRVTMTTDTSTNTAYMELRSLTADDTAVYYCARVHAALYYGMDVWGQGTLVTVSS
VL: QSVLTQPPSVSVAPGQTARITCGGNNIGSKGVHWYQQKPGQAPVLVVYDDSDRPSGIPERFSGSNSGNTATLTISRVEAGDEADYYCQVWDSSSDHWVFGGGTKLTVL
notes: anti-PD-L1 clone; also called Ab 1A6
B4: 1E1. (antibody, V domains shown)
VH: QVQLVQSGVEMKKPGASVRVSCKGSGYTFSSYGISWVRQAPGQGLEWMGWISAHNGHASNAQKLEDRVTMTTDTSTNTAYMELRSLTSDDTAVYYCARVHGALYYGMDVWGQGTTVTVSS
VL: SYELTQPPSVSVAPGQTARIPCGANNIGGKSVHWYQQKPGQAPVLVVYDDRDRPSGIPERFSGSNSGNTATLTISRVEAGDEADYYCQVWDSSSDHWVFGGGTKLTVL
notes: anti-PD-L1 clone; also called Ab 1E1
B5: 14C61 (antibody, V domains shown)
VH: EVQLVQSGGEVKKPGASVKVSCKASGYTLSSHGITWVRQAPGQGLEWMGWISAHNGHASNAQKVEDRVTMTTDTSTNTAYMELRSLTPDDTAVYYCARVHAALYYGMDVWGQGTLVTVSS
VL: SYELTQPPSVSVAPRQTAKITCTRDNIESRSVNWYQQRAGQAPAVIVYDDTERPSGITVRYSGSNSGNTATLTISRVEAGDEADYYCQVWDSSGDLWVFGGGTKLTVL
notes: anti-PD-L1 clone; also called Ab 14C61
B6: 1D1 (antibody, V domains shown)
VH: QVQLVQSGAEVKKPGASVKVSCKASGYTFTSYGISWVRQAPGQGLEWMGWISAYNGHASNAQKVEDRVTMTTDTSTNTAYMELRNLTTDDTAVYYCARVHAALYYGMDVWGQGTTVTVSS
VL: SYELTQPPSVSVAPGQTARITCGGDNIGSKGVHWYQQTPGQAPVLVVYDDSDRPSGIPERFSGSKSGNTATLTISRVEAGDEADYYCQVWDSRSDHWVFGGGTRVTVL
notes: anti-PD-L1 clone; also called Ab 1D1
B7: 1A3 (antibody, V domains shown)
VH: EVQLVQSGAEVKKPGASVKVSCKASGYTLSSHGITWVRQAPGQGLEWMGWISAHNGHASNAQKVEDRVTMTTDTSTNTAYMELRSLTPDDTAVYYCARVHAALYYGMDVWGQGTLVTVSS
VL: LPVLTQPPSVSVAPGQTARITCGGNNIGSKSVHWYQQKPGQAPVLVVYDDSDRPSGIPERFSGSNSGNTATLTISRVEAGDEADYYCQVWDSSSDHWVFGGGTKLTVL
notes: anti-PD-L1 clone; also called Ab 1A3
B8: 1F1 (antibody, V domains shown)
VH: QVQLVQSGGEVKKPGASVKVSCKASGYTLSSHGITWVRQAPGQGLEWMGWISAHNGHASNAQKVEDRVTMTTDTSTNTAYMELRSLTPDDTAVYYCARVHAALYYGMDVWGQGTLVTVSS
VL: QPVLTQPPSVSVAPGQTARITCGGDNIGSKGVHWLQQKPGQAPVLVVYDDRDRPSGIPERFSGSNSGSTATLTISRVEAGDEADYYCQVWDSSSDHWVFGGGTKLTVL
notes: anti-PD-L1 clone; also called Ab 1F1
B9: 1A2 (antibody, V domains shown)
VH: QVQLVQSGGEVKKPGASVKVSCKASGYTLSSHGITWVRQAPGQGLEWMGWISAHNGHASNAQKVEDRVTMTTDTSTNTAYMELRSLTADDTAVYYCARVHAALYYGMDVWGQGTTVTVSS
VL: QSVLTQPPSVSVAPGQTARITCGGNNIGSKGVHWYQQKPGQAPVLVVYDDSDRPSGIPERFSGSNSGNTATLTISRVEAGDEADYYCQVWDSSSDHWVFGGGTKLTVL
notes: anti-PD-L1 clone; also called Ab 1A2
B10: 1C6 (antibody, V domains shown)
VH: QVQLVQSGGEVKKPGASVKVSCKASGYTLSSHGITWVRQAPGQGLEWMGWISAHNGHASNAQKVEDRVTMTTDTSTNTAYMELRSLTPDDTAVYYCARVHAALYYGMDVWGQGTLVTVSS
VL: LPVLTQPPSVSVAPGQTARITCGGNNIGSKSVHWYQQKPGQAPVLVVYDDSDRPSGIPERFSGSNSGNTATLTINRVEAGDEADYYCQVWDSSSDHWVFGGGTKLTVL
notes: anti-PD-L1 clone; also called Ab 1C6
B11: 1H2 (antibody, V domains shown)
VH: QVQLVQSGGGLVKPGGSLRLSCAASGFTFSSYSMNWVRQAPGKGLVWISRIISDGSATTYADSVKGRFTISRDNAKNTLYLQMNSLRAEDTGVYYCARDRSEGGFDPWGQGTLVTVSS
VL: SSELTQDPAVSVALGQTVRITCQGDSLRSYYASWYQQKPGQAPVLVIYGKNNRPSGIPDRFSGSTSGNTASLTITGAQAEDEADYYCNSRDISDNQWQWIFGGGTKLAVL
notes: anti-PD-L1 clone; also called Ab 1H2
B12: 1C1 (antibody, V domains shown)
VH: QVQLVQSGAEVKKPGASVKVSCKASGYTFTSYGISWVRQAPGQGLEWMGWTSPHNGLTAFAQILEGRVTMTTDTSTNTAYMELRNLTFDDTAVYFCAKVHPVFSYALDVWGQGTLVTVSS
VL: NFMLTQPHSVSESPGKTVTISCTRSSGSIASNYVQWYQQRPGSSPTTVIYEDNQRPSGVPDRFSGSIDTSSNSASLTISGLKTKDEADYYCQSYDGITVIFGGGTKLTVL
notes: anti-PD-L1 clone; also called Ab 1C1
B13: 1D4 (antibody, V domains shown)
VH: QVQLVQSGGGVVQPGRSLRLSCAASGFTFSSYAIHWVRQAPGKGLEWITTISYDGSNKYYADSVKGRFTISRDNPKNTLYLQMNSLRAEDTAVYYCARGFGGPDYWGQGTLVTVSS
VL: LPVLTQPSSLSASPGASASLTCTLRSGINVGTYRIYWYQQKPGSPPQYLLRYKSDSDKQQGSGVPSRFSGSKDASANAGILLISGLQSEDEADYYCMIWHSSAYVFGTGTKVTVL
notes: anti-PD-L1 clone; also called Ab 1D4
B14: 1H5 (antibody, V domains shown)
VH: QVQLVQSGAEVKKPGSSVKVSCKASGGTFSRYALTWVRQAPGQGLEWMGGIIPIFGRANYAQKFQGRVTITADKSTSTAYMELGSLTSDDTAVYYCAEEGAFNSLAIWGQGTMVTVSS
VL: NFMLTQPHSVSGSPGETVTISCTRSSGSIASHFVQWYQQRPGSSPTTVIFGDDQRPSGVPDRISGSIDTSSNSASLSISGLKTEDEADYYCQSYDSSNHVVFGGGTKLTVL
notes: anti-PD-L1 clone; also called Ab 1H5
B15: 1C4 (antibody, V domains shown)
VH: QVQLVQSGAEVKKPGSSVKVSCKASGGTFSRYALTWVRQAPGQGLEWMGGIIPIFGRANYAQKFQGRVTITADKSTSTAYMELGSLTSDDTAVYYCAEEGAFNSLAIWGQGTMVTVSS
VL: NFMLTQPHSVSESPGKTVTISCTRSSGSIASNYVQWYQQRPGSAPTTVIFADNQRPSGVPARFSGSIDSSSNSASLTISGLKTEDEADYYCQSYDSSNHWVFGGGTQLTVL
notes: anti-PD-L1 clone; also called Ab 1C4
B16: 1G1 (antibody, V domains shown)
VH: EVQLVQSGAEVKKPGSSVRVSCKASGGTFSSYAISWVRQAPGQGLEWMGRIIPILGIANYAQKFQGRVTITADKSTSTAYMELSSLRSEDTAVYYCASGSIVGAAYAFDIWGQGTTVTVSS
VL: QSVLTQPPSVSVAPGKAANLNCGGKNIGGRVVHWYQQRPGQAPVLVIYDDTDRPSGIPERFSGSNSGNTATLTITDVEVGDEADYYCQVWDSRSDHPVFGGGTTLTVL
notes: anti-PD-L1 clone; also called Ab 1G1

Sequence of PD-L1 (antigen of the kinetic measurements) (Q9NZQ7 19-238 limits assumed): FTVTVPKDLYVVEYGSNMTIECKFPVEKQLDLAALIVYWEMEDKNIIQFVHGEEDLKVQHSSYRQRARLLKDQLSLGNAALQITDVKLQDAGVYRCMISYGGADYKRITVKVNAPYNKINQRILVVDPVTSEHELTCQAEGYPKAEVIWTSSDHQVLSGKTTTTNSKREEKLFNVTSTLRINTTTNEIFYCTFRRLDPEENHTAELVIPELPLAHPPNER

One assay addresses PD-L1 (antigen of the kinetic measurements) (human, UniProt Q9NZQ7). Kind of assay: kinetic measurements for aPDL1 antibodies; instrument and antigen format not stated.
For the molecule B1, the Kd is 0.989 nM, the koff turned out to be 0.00133 s⁻¹ and the kon came to 1.35e+06 M⁻¹ s⁻¹.
B2 showed a Kd of 0.669 nM, a koff of 0.00124 s⁻¹ and a kon of 1.85e+06 M⁻¹ s⁻¹.
In the same order, the values of B3 are 913 nM, 0.0113 s⁻¹ and 12400 M⁻¹ s⁻¹.
Consider B4, for which the Kd is 8.98 nM, the koff came out at 0.00884 s⁻¹ and the kon came out at 984000 M⁻¹ s⁻¹.
Consider B5, for which the Kd worked out at 1.91 nM.
The molecule B6 registered a Kd of 0.609 nM, a koff of 0.000745 s⁻¹ and a kon of 1.22e+06 M⁻¹ s⁻¹.
Consider B7, for which binding was characterised by a dissociation constant (Kd) of 873 nM, the koff amounted to 0.0115 s⁻¹ and the kon was 13100 M⁻¹ s⁻¹.
The corresponding values for B8 are 0.461 nM, 0.000338 s⁻¹ and 733000 M⁻¹ s⁻¹.
Molecule B9 showed a Kd of 0.679 nM.
In the case of B10, binding was characterised by a dissociation constant (Kd) of 41.6 nM, the koff was 0.01 s⁻¹ and the kon was determined as 241000 M⁻¹ s⁻¹.
In turn, B11 showed a Kd of 1.57 nM.
For B12, binding was put at a Kd of 1.23 nM, the koff was determined as 0.000987 s⁻¹ and the kon was determined as 802000 M⁻¹ s⁻¹.
B13 showed a Kd of 1.03 nM. That is a single-digit nanomolar value.
For B14, the Kd was 0.287 nM, the koff is 0.000367 s⁻¹ and the kon was 1.28e+06 M⁻¹ s⁻¹.
With B15, the Kd is 1.16 nM. That is a single-digit nanomolar value.
Still for that read-out and setting: the value for B16 was 0.878 nM.

In a further assay the target is T1, PD-L1 (on 293T cells stably expressing PD-L1) (human, UniProt Q9NZQ7).
T1 construct: expressed on the surface of stably transfected 293T cells; also called CD274; B7-H1
T1 sequence (Q9NZQ7 19-290 limits assumed): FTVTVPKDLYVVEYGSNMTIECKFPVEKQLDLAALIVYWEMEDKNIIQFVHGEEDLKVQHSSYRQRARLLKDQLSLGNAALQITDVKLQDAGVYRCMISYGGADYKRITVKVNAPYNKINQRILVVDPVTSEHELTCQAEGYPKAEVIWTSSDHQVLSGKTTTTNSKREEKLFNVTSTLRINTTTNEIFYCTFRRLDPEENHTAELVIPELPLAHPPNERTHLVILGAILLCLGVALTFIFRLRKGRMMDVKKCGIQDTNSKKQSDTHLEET
Kind of assay: flow cytometry on 293T cells stably expressing PD-L1, percent of cells labelled, anti-hFc secondary.
In the case of B1, the “EC50 (read off the curve)” value is roughly 0.1 nM.
Take B13: the “EC50 (read off the curve)” value is 0.2 to 0.3 nM.
For the molecule B16, the “EC50 (read off the curve)” value is roughly 0.05 nM.

A word on the Kd: it is a measure of binding affinity in units of concentration. Lower therefore signals higher affinity. The koff is the rate constant with which the complex falls apart. The kon is the second-order rate constant of association. In general, EC50 (read off the curve) refers to the concentration at which the effect is half-maximal. A high value points to a less potent agent.
